Test results reported in publication PMC5357909, “Structural and functional studies of a noncanonical Dicer from Entamoeba histolytica” (Scientific Reports, 2017).

Assays:
[1] = target: T1, EA256 (EhRNaseIII-AadsRBD chimera) (Entamoeba histolytica / Aquifex aeolicus, UniProt C4LU64 2-256+O67082:145-221, internal_change); test: EMSA; 5 mM Mg2+; more than 70% bound at 1e-4 M; EMSA (1x): 30 mM Tris-HCl pH 7.5, 30 mM NaCl, 5 mM MgCl2, 1 mM DTT, 0.1 mM EDTA, 5% glycerol; room temperature 10 min then ice 20 min; 6% native PAGE, 0.5x TBE; conditions: protein: recombinant; tags: His-Sumo removed by Ulp1; chain copies: 2; blunt, 25 bp
T1 sequence: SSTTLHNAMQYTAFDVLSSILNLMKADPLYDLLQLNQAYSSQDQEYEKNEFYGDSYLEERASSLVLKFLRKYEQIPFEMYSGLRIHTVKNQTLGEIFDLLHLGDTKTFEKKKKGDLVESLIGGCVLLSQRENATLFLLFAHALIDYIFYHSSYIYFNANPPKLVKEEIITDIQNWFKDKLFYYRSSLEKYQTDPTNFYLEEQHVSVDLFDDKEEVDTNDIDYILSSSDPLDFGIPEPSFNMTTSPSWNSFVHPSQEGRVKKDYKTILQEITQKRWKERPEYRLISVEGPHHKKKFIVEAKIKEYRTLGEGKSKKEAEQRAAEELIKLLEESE

[2] = target: T1, EA256 (EhRNaseIII-AadsRBD chimera); test: EMSA; 5 mM Mg2+; completely bound at 1e-4 M; EMSA (1x): 30 mM Tris-HCl pH 7.5, 30 mM NaCl, 5 mM MgCl2, 1 mM DTT, 0.1 mM EDTA, 5% glycerol; room temperature 10 min then ice 20 min; 6% native PAGE, 0.5x TBE; conditions: protein: recombinant, tags: His-Sumo removed by Ulp1, chain copies: 2, blunt

B1: RNA25 (dsRNA)
RNA 1: GGGAGAAACGCGGCCUCUUUCUCCC
RNA 2: GGGAGAAAGAGGCCGCGUUUCUCCC
Question: Which “apparent K (half saturation)” value [1] does the source give for B1 here?
Answer: < 100 µM

B2: RNA100 (dsRNA)
RNA 1: GGGAGAAACGCGGCCUCUUCUUAUUUAUGGCGACAUGUUGUGCCACAUAUUGAGCCAGUAGCGCGGUGUAUUAUACCAGACCUUAUUGGUAUGGUCUCCC
RNA 2: GGGAGACCAUACCAAUAAGGUCUGGUAUAAUACACCGCGCUACUGGCUCAAUAUGUGGCACAACAUGUCGCCAUAAAUAAGAAGAGGCCGCGUUUCUCCC
Question: With B2 as the binder, how does the “apparent K (half saturation)” value ([2]; 100 bp) read?
Answer: < 100 µM

B3: RNA70 (dsRNA)
RNA 1: GGGAGAAACGCGGCCUCUUCUUAUUUAUGGCGACAUGUUGUGCCACAUAUUGAGCCAGUAGCGCUCUCCC
RNA 2: GGGAGAGCGCUACUGGCUCAAUAUGUGGCACAACAUGUCGCCAUAAAUAAGAAGAGGCCGCGUUUCUCCC
Question: Which “apparent K (half saturation)” value ([2]; 70 bp) does the source give for B3 here?
Answer: < 100 µM

B4: RNA50 (dsRNA)
RNA 1: GGGAGAAACGCGGCCUCUUCUUAUUUAUGGCGACAUGUUGUGCCUCUCCC
RNA 2: GGGAGAGGCACAACAUGUCGCCAUAAAUAAGAAGAGGCCGCGUUUCUCCC
Question: B4 was tested. Which “apparent K (half saturation)” value ([2]; 50 bp) did it give?
Answer: < 100 µM
